From article PMC13503762 (Nature Communications, 2026) come the findings set out here.

The experiment deals with SARS-CoV-2 M protein (purified, in LMNG/CHS detergent) (SARS-CoV-2, UniProt P0DTC5). Kind of experiment: cryo-EM structure. Conditions: both partners purified.

B1: long conformation Fab (lcFab) (Fab, V domains shown)
VH: EVQLQQSGAELVRPGSSVKISCKGSGYVFSNYWMNWVKQRPGQGLEWIGQIYPGDGDTNYNGKFKGKATLTADKSSSTAYMQLSSLTSEDSAVYFCASGYLGENYVMDFWGQGTSVTVSS
VL: DIVLTQSPASLTVSLGQRATISCRASESVDSFGNSFMHWYQQKPGQPPKLLIYRASNLESGIPARFSGSGSRTDFTLTINPVEADDVATYYCQQSSEDPYTFGGGTKLEIK
notes: also called Fab targeting M_(long)
In the case of B1, the binding result is listed as “binds”.
